This experiment concerns the target nominally empty recombinant adeno-associated virus 5 capsid (adeno-associated virus 5 (recombinant, rAAV5)) (UniProt Q9YIJ1). In words: SEC-MALS; Superose 6 Increase (10/300), phosphate-buffered saline as mobile phase, 0.8 mL/min, column and detectors at 30 °C, samples kept at 4 °C before injection; RI, UV and RALS/LALS detection; whole capsid with whole capsid (dimer of capsids).

“nominally empty recombinant adeno-associated virus 5 capsid (from UniProt Q9YIJ1 1-724) (complex)”: the fraction of sample (%) in the dimer peak is 7.2% and the stoichiometry N was 2.

These data come from publication PMC8074050.
